In publication PMC10261046, “Mechanism of small molecule inhibition of Plasmodium falciparum myosin A informs antimalarial drug design” (Nature Communications, 2023):

T1: Full-length PfMyoA heavy chain WT (Plasmodium falciparum, UniProt Q8IDR3 1-818)
T1 sequence (heavy): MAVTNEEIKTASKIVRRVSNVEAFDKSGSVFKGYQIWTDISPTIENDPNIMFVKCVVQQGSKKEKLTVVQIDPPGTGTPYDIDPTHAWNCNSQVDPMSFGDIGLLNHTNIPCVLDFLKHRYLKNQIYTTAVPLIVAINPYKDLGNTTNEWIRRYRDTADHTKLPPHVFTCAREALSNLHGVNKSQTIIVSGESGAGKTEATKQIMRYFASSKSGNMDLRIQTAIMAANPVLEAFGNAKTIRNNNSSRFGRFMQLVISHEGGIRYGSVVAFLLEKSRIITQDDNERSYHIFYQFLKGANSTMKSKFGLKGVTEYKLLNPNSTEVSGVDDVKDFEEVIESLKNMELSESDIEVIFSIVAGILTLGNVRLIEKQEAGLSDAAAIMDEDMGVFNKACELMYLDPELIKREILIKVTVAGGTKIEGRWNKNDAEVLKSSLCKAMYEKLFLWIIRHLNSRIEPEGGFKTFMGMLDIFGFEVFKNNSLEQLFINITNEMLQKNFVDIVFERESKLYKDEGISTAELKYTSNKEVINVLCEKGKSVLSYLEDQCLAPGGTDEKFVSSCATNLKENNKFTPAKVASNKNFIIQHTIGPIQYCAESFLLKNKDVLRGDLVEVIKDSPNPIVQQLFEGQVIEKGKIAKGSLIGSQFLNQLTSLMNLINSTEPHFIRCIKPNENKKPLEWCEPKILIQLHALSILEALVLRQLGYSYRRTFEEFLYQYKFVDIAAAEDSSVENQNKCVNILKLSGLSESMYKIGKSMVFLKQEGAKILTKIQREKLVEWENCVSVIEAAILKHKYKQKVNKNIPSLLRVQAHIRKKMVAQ

B1: PfMyoA (full length Plasmodium falciparum myosin A heavy chain WT with bound light chains PfELC and PfMTIP) (complex)
chain 1: T1 sequence (heavy)
chain 2: MASDMEEKFREAFILFSSCSDHIEMYKFFELMNSFGIILTNDEKAALPNDINMDYWLNFAKKHYNYEQPFKHINNVNEQNTNVQIKIDNFLGIMKALDTRLTESDLNILLQITNPENKSTLNLKTVSQKLTESI
chain 3: MKQECNVCYFNLPDPESTLGPYDNELNYFTWGPGFEYEPEPQRKPLSIEESFENSEESEESVADIQQLEEKVDESDVRIYFNEKSSGGKISIDNASYNARKLGLAPSSIDEKKIKELYGDNLTYEQYLEYLSICVHDKDNVEELIKMFAHFDNNCTGYLTKSQMKNILTTWGDALTDQEAIDALNAFSSEDNIDYKLFCEDILQ
notes: also called class XIV myosin A; M.ADP; copies: + +
B2: PfELC (natural protein)
light: B1 chain 2
notes: also called essential light chain
B3: MTIP-ΔN (PfMTIP lacking residues 1-E60) (domain or fragment)
light: SVADIQQLEEKVDESDVRIYFNEKSSGGKISIDNASYNARKLGLAPSSIDEKKIKELYGDNLTYEQYLEYLSICVHDKDNVEELIKMFAHFDNNCTGYLTKSQMKNILTTWGDALTDQEAIDALNAFSSEDNIDYKLFCEDILQ
notes: also called ΔN-MTIP

Legend:
[1] = molecular target: Skeletal muscle actin (chicken), filaments (chicken, UniProt P68139 1-377); assay: count of fluorescent actin filaments on surface-immobilized myosin (modified in vitro motility assay); PfMyoA surface-immobilized; same buffer, 0% methylcellulose, 30 °C; no nucleotide (NF); with or without KNX-002; conditions: both partners purified
[2] = molecular target: T1, Full-length PfMyoA heavy chain WT; assay: crystal structure; PfMyoA/ELC/MTIP-ΔN co-crystallized with or without KNX-002 and with or without ATPγS; hanging drop, 4 °C, 2.0 M ammonium sulfate, 0.1 M sodium HEPES pH 7.5, 4% PEG400; conditions: both partners purified

Binder | binding result [1] | binding result [2]
B1 | binds | –
B2 | – | binds
B3 | – | binds
